{"source": "paper PMC12326010", "about": "“Substrate accessibility regulation of human TopIIa decatenation by cohesin” (Nature Communications, 2025)", "proteins": {"B1": {"name": "Human topoisomerase II alpha labelled with Alexa Fluor 555 (TOP2α-AF555) (enzyme, UniProt P11388 1-1531, looked up)", "chain": "MEVSPLQPVNENMQVNKIKKNEDAKKRLSVERIYQKKTQLEHILLRPDTYIGSVELVTQQMWVYDEDVGINYREVTFVPGLYKIFDEILVNAADNKQRDPKMSCIRVTIDPENNLISIWNNGKGIPVVEHKVEKMYVPALIFGQLLTSSNYDDDEKKVTGGRNGYGAKLCNIFSTKFTVETASREYKKMFKQTWMDNMGRAGEMELKPFNGEDYTCITFQPDLSKFKMQSLDKDIVALMVRRAYDIAGSTKDVKVFLNGNKLPVKGFRSYVDMYLKDKLDETGNSLKVIHEQVNHRWEVCLTMSEKGFQQISFVNSIATSKGGRHVDYVADQIVTKLVDVVKKKNKGGVAVKAHQVKNHMWIFVNALIENPTFDSQTKENMTLQPKSFGSTCQLSEKFIKAAIGCGIVESILNWVKFKAQVQLNKKCSAVKHNRIKGIPKLDDANDAGGRNSTECTLILTEGDSAKTLAVSGLGVVGRDKYGVFPLRGKILNVREASHKQIMENAEINNIIKIVGLQYKKNYEDEDSLKTLRYGKIMIMTDQDQDGSHIKGLLINFIHHNWPSLLRHRFLEEFITPIVKVSKNKQEMAFYSLPEFEEWKSSTPNHKKWKVKYYKGLGTSTSKEAKEYFADMKRHRIQFKYSGPEDDAAISLAFSKKQIDDRKEWLTNFMEDRRQRKLLGLPEDYLYGQTTTYLTYNDFINKELILFSNSDNERSIPSMVDGLKPGQRKVLFTCFKRNDKREVKVAQLAGSVAEMSSYHHGEMSLMMTIINLAQNFVGSNNLNLLQPIGQFGTRLHGGKDSASPRYIFTMLSSLARLLFPPKDDHTLKFLYDDNQRVEPEWYIPIIPMVLINGAEGIGTGWSCKIPNFDVREIVNNIRRLMDGEEPLPMLPSYKNFKGTIEELAPNQYVISGEVAILNSTTIEISELPVRTWTQTYKEQVLEPMLNGTEKTPPLITDYREYHTDTTVKFVVKMTEEKLAEAERVGLHKVFKLQTSLTCNSMVLFDHVGCLKKYDTVLDILRDFFELRLKYYGLRKEWLLGMLGAESAKLNNQARFILEKIDGKIIIENKPKKELIKVLIQRGYDSDPVKAWKEAQQKVPDEEENEESDNEKETEKSDSVTDSGPTFNYLLDMPLWYLTKEKKDELCRLRNEKEQELDTLKRKSPSDLWKEDLATFIEELEAVEAKEKQDEQVGLPGKGGKAKGKKTQMAEVLPSPRGQRVIPRITIEMKAEAEKKNKKKIKNENTEGSPQEDGVELEGLKQRLEKKQKREPGTKTKKQTTLAFKPIKKGKKRNPWSDSESDRSSDESNFDVPPRETEPRRAATKTKFTMDLDSDEDFSDFDEKTDDEDFVPSDASPPKTKTSPKLSNKELKPQKSVVSDLEADDVKGSVPLSSSPPATHFPDETEITNPVPKKNVTVKKTAAKSQSSTSTTGAKKRAAPKGTKRDPALNSGVSQKPDPAKTKNRRKRKPSTSDDSDSNFEKIVSKAVTSKKSKGESDDFHMDFDSAVAPRAKSVRAKKPIKYLEESDEDDLF", "modifications": "Alexa555 conjugated CoA attached by SFP transferase to the ybbr tag (labelling efficiency ~30% or ~70%)", "notes": "Human topoisomerase II alpha (TOP2α), encoded from the pLIB vector with a C-terminal 3C-ybbr-tev-strepII tag; Two preparations: ~30% labelled (Strep-II tag apparently cleaved); The dimer rows rest on the ~30% preparation; also called TOP2α-Alexa555; TopIIa; source: baculovirus, SF9 or HighFive cells, purified (StrepTrap, HiTrap Heparin, size exclusion); not shown: ybbr, C-terminal, kept; StrepII, …"}}, "molecular_target": "the molecule itself", "assay": "single-molecule fluorescence intensity (confocal scans, optical tweezers); 2 nM TOP2α-AF555 bound at the junction of a DNA braid, 1 mM ATPγS (also four-braid substrates with ATP); 2D Gaussian fit of spot intensity, histogram of photon counts; 50 mM Tris pH 7.5, 125 mM potassium glutamate, 2.5 mM MgCl2, 0.5 mg/mL BSA", "data": [{"protein": "B1", "values": [{"measurement": "stoichiometry N", "value": 2}]}]}
